{"source": "patent US20190300590A1", "about": "(PROTAGONIST THERAPEUTICS, published 2019)", "binders": {"B1": {"name": "Ac-CQTWQCYW-[βhArg]-VNG-[AEA]-[(D)Lys]-NH2 (peptide)", "peptide": "Ac-CQTWQCYW[β3hR]VNG[AEA][dK]-NH2", "modifications": "disulfide 1-6", "SMILES": "CC(=O)N[C@H]1CSSC[C@@H](C(=O)N[C@@H](Cc2ccc(O)cc2)C(=O)N[C@@H](Cc2c[nH]c3ccccc23)C(=O)N[C@@H](CCCNC(=N)N)CC(=O)N[C@H](C(=O)N[C@@H](CC(N)=O)C(=O)NCC(=O)NCCOCC(=O)N[C@H](CCCCN)C(N)=O)C(C)C)NC(=O)[C@H](CCC(N)=O)NC(=O)[C@H](Cc2c[nH]c3ccccc23)NC(=O)[C@H]([C@@H](C)O)NC(=O)[C@H](CCC(N)=O)NC1=O"}, "B2": {"name": "[Ac-[Pen]-QTWQ-[Pen]-[Phe(4-CONH2)]-[2-Nal]-[α-MeLys]-[Lys(Ac)]-NN-NH2]2DIG (peptide)", "peptide": "XQTWQXFXKKNN", "modifications": "Ac; Pen-Pen disulfide; Phe(4-CONH2); 2-Nal; α-MeLys; Lys(Ac); NH2; DIG linker joins the two subunits"}, "B3": {"name": "[Ac-[Pen]-QTWQ[Pen]-[Phe[4-(2-acetylaminoethoxy)]-[2-Nal]-K-[Lys(Ac)]-NN-NH2]2DIG (peptide)", "peptide": "XQTWQXFXKKNN", "modifications": "Ac; Pen-Pen disulfide; Phe[4-(2-acetylaminoethoxy)]; 2-Nal; Lys(Ac); NH2; DIG linker joins the two subunits"}, "B4": {"name": "[Ac-[Pen]-QTWQ-[Pen]-[Phe(4-OMe)]-[2-Nal]-[α-MeLys]-[Lys(Ac)]-NN-NH2]2DIG (peptide)", "peptide": "XQTWQXFXKKNN", "modifications": "Ac; Pen-Pen disulfide; Phe(4-OMe); 2-Nal; α-MeLys; Lys(Ac); NH2; DIG linker joins the two subunits"}, "B5": {"name": "[Ac-[Pen]-QTWQ[Pen]-[Phe[4-(2-acetylaminoethoxy)]-[2-Nal]-[α-MeVal]-KNN-NH2]2DIG (peptide)", "peptide": "XQTWQXFXVKNN", "modifications": "not fully specified; Ac; Pen-Pen disulfide; Phe[4-(2-acetylaminoethoxy)]; 2-Nal; α-MeVal; NH2; DIG linker joins the two subunits"}}, "key": {"[1]": {"target": "T1, IL-23R on human cells (IL-23R-expressing DB cells; human NK cells) (human, UniProt Q5VWK5 24-629)", "T1 sequence (looked up)": "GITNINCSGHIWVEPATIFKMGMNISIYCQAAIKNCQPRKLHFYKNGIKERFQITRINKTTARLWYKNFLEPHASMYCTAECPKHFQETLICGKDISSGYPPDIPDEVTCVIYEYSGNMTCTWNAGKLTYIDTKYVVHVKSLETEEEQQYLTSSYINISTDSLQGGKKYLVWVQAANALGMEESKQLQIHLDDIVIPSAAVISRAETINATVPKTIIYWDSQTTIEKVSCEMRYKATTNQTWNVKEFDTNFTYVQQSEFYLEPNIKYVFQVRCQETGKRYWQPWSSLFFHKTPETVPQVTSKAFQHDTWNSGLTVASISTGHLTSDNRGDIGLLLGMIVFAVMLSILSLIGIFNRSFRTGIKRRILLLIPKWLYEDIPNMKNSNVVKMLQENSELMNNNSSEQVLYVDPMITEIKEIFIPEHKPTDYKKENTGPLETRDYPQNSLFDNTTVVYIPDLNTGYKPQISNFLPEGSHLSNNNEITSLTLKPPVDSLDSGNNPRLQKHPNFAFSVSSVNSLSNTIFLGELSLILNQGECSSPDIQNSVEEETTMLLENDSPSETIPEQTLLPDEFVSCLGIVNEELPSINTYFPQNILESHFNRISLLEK", "experiment": "cell-based or functional assay"}, "[2]": {"target": "T2, IL23R_huFC (human, UniProt Q5VWK5 24-353)", "T2 sequence (looked up)": "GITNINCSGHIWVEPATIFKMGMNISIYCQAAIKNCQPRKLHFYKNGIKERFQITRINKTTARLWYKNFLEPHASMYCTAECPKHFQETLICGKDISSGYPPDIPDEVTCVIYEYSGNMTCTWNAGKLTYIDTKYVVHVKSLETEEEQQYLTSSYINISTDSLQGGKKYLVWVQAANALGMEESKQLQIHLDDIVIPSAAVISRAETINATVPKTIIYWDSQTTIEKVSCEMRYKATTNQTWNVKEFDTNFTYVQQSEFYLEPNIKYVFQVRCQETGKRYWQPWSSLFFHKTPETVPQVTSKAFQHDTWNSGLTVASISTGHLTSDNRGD", "experiment": "IL23-IL23R competitive ELISA"}, "[3]": {"target": "Rat IL-23R_huFC (rat)", "experiment": "rat ELISA vs IL-23"}, "[4]": {"target": "T3, IL23R_huFC (human, UniProt Q5VWK5 24-353)", "T3 sequence (looked up)": "T2 sequence (looked up)", "experiment": "human ELISA vs IL-23"}, "[5]": {"target": "T4, IL23R_huFC (human, UniProt Q5VWK5 24-353)", "T4 sequence (looked up)": "T2 sequence (looked up)", "experiment": "IL23-IL23R competitive binding ELISA"}, "[6]": {"target": "T5, Rat IL-23R_huFC (rat, UniProt F1LX96 39-369)", "T5 sequence": "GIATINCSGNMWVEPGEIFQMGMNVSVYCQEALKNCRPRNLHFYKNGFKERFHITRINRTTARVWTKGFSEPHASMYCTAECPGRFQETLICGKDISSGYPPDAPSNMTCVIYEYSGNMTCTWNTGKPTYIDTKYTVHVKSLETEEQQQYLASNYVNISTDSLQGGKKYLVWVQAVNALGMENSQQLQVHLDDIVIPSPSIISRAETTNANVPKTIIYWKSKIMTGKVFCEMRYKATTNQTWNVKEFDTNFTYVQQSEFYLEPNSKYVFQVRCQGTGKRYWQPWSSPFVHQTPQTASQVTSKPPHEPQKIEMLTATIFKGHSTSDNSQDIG", "experiment": "rat IL-23R competitive binding ELISA"}, "[7]": {"target": "T3, IL23R_huFC", "experiment": "human ELISA vs IL-23", "remark": "listed apart in the source"}}, "note": "*1 amine or outer side, *2 acyl side, *3 side chain or, on linkers, in order; H or OH if unused. Bridges are numbered along the chain shown (N, C = ends). Primed or numbered codes have the meaning given here. [ ]: non-standard residue; d: D form. Phe(4-OMe)(3) = O-methyl-L-tyrosine (4-methoxy-L-phenylalanine), COc1ccc(C[C@H](N[*:1])C(=O)[*:2])cc1; Tyr(3-tBu) = CC(C)(C)c1cc(C[C@H](N)C(=O)O)ccc1O; β3hR = N=C(N)NCCC[C@H](N)CC(=O)O; αMeK = C[C@](N)(CCCCN)C(=O)O; Abu = CC[C@H](N)C(=O)O; AEA = NCCOCC(=O)O", "data": [{"binder": "XNTWQXFXXKNN (as bracketed in name; Pen-Pen disulfide)", "note": "[Ac-[Pen]-NTWQ[Pen]-[Phe(CONH2)]-[2-Nal]-[Aib]-[Lys(Ac)]-NN-NH2]", "values": [{"measurement": "NK cell assay IC50 (IFNγ)", "setting": "[1]", "result": "< 10", "unit": "nM"}]}, {"binder": "B1", "values": [{"measurement": "IC50", "setting": "[2]", "result": 922, "unit": "nM"}]}, {"binder": "XQTWQXFXKENG (as bracketed in name; thioether cyclo)", "note": "[Ac-Cyclo-[[Abu]-QTWQ-[Pen]]-[Phe(4-OMe)]-[2-Nal]-[α-MeLys]-ENG-NH2]", "values": [{"measurement": "IC50", "setting": "[3]", "result": "100 to 1000", "unit": "nM"}, {"measurement": "IC50", "setting": "[4]", "result": "100 to 1000", "unit": "nM"}]}, {"binder": "XNTWQXFXXKNN (as bracketed in name; Pen-Pen disulfide; DIG linker)", "note": "[[Ac-[Pen]-NTWQ-[Pen]-[Phe(4-CONH2)]-[2-Nal]-[Aib]-KNN-NH2]2 DIG]", "values": [{"measurement": "NK cell assay IC50 (IFNγ)", "setting": "[1]", "result": "< 10", "unit": "nM"}]}, {"binder": "CADWVCYFXXFGXK (not fully specified; Ac-; [Phe(CONH2)]; [Orn]; [Dap]; [AEA]; [(D)Lys]; -NH2)", "note": "[Ac-CADWVCY-[Phe(CONH2)]-[Orn]-[Dap]-FG-[AEA]-[(D)Lys]-NH2]", "values": [{"measurement": "IC50", "setting": "[2]", "result": "~6000", "unit": "nM"}]}, {"binder": "CADWVCYFXXFGXK (not fully specified; Ac-; [hPhe]; [Orn]; [Dap]; [AEA]; [(D)Lys]; -NH2)", "note": "[Ac-CADWVCY-[hPhe]-[Orn]-[Dap]-FG-[AEA]-[(D)Lys]-NH2]", "values": [{"measurement": "IC50", "setting": "[2]", "result": 30000, "unit": "nM"}]}, {"binder": "Ac-CQTWQCYW[dL]ENG-NH2 (cysteine pairing not given here)", "note": "[Ac-CQTWQCYW-[(D)Leu]-ENG-NH2]", "values": [{"measurement": "IC50", "setting": "[5]", "result": 319, "unit": "nM"}]}, {"binder": "B2", "values": [{"measurement": "IC50", "setting": "[6]", "result": "10 to 25", "unit": "nM"}]}, {"binder": "B3", "values": [{"measurement": "IC50", "setting": "[6]", "result": "25 to 100", "unit": "nM"}]}, {"binder": "B4", "values": [{"measurement": "IC50", "setting": "[6]", "result": "10 to 25", "unit": "nM"}]}, {"binder": "B5", "values": [{"measurement": "IC50", "setting": "[6]", "result": "10 to 25", "unit": "nM"}]}, {"binder": "XNTWQXFXXKNA (as bracketed in name; Pen-Pen disulfide)", "note": "[Ac-[Pen]-NTWQ-[Pen]-[Phe]4-(2-aminoethoxy)]-[2-Nal]-[Aib]-[Lys(Ac)]-N-[βAlal-NH2]", "values": [{"measurement": "NK cell assay IC50 (IFNγ)", "setting": "[1]", "result": "< 10", "unit": "nM"}]}, {"binder": "CQTWQCXWXENG (not fully specified; Ac; X7 = Cha; X9 = hLeu; NH2)", "note": "[Ac-CQTWQC-[Cha]-W-[hLeu]-ENG-NH2]", "values": [{"measurement": "IC50", "setting": "[5]", "result": "~6000", "unit": "nM"}]}, {"binder": "Ac-[Abu]QTWQC[Phe(4-OMe)(3)][Tyr(3-tBu)][αMeK]ENG-NH2 (thioether 1-6)", "note": "[Ac-Cyclo-[[Abu]-QTWQC]-[Phe(4-OMe)]-[Tyr(3-tBu)]-[α-MeLys]-ENG-NH2]", "values": [{"measurement": "IC50", "setting": "[7]", "result": "25 to 100", "unit": "nM"}, {"measurement": "IC50", "setting": "[3]", "result": "100 to 1000", "unit": "nM"}]}]}
